Test results as given in patent publication US20040106198A1, “Inhibition of peptide cleavage in plants” (LARGE SCALE BIOLOGY CORPORATION, priority 2002, published 2004).

Tested on: CD34+
Assay: CD34+ proliferation assays
Format: cell-based
Conditions: proteins purified from plants
Method: The vectors were used to inoculate plant leaves of different sets of plants as described in the examples above. Both plant homogenates and interstitial fluid were extracted as described above. hSCF and pSCF were each purified from 27 plants to yield 0.85 mg (˜15 mg/kg) and 2.5 mg (˜45 mg/kg) of protein respectively.

B1: pSCF: porcine Stem Cell growth Factor expressed in plants from GENEWARE vector (protein)
chain: QGICRNRVTDDVKDVTKLVANLPKDYKITLKYVPGMDVLPSHCWISEMVEQLSVSLTDLLDKFSNISEGLSNYSIIDKLVKIVDDLVECMEEHSFENVKKSSKSPEPRLFTPEKFFGIFNRSIDAFKDLEMVAPKTSECVISSTLTPEKDSRVSVTKPFMLPPVAA
- biological activity in CD34+ proliferation assays: biologically active
